{"source": "the supplement of paper PMC5998384", "key": {"[1]": {"test_system": "HeLa Kyoto", "assay": "thermal stability score vs G1/S (z-score of summed log2 fold changes over temperatures); higher = more thermally stable than in G1/S"}, "[2]": {"test_system": "HeLa Kyoto", "assay": "melting temperature (median over replicates), in situ; higher = more thermally stable"}, "[3]": {"test_system": "HeLa Kyoto", "assay": "solubility in G1/S (NP-40 vs SDS abundance) (log2 ratio); higher = more soluble", "conditions": "cell cycle stage: G1/S"}, "[4]": {"test_system": "HeLa Kyoto", "assay": "solubility change mitosis vs G1/S (difference of NP-40 vs SDS log2 ratios) (log2 ratio difference); higher = more soluble in mitosis"}, "[5]": {"conditions": "cell cycle stage: early G1 (4.5 h after nocodazole release)"}}}
{"sequence": "MAEGGGCRERPDAETQKSELGPLMRTTLQRGAQWYLIDSRWFKQWKKYVGFDSWDMYNVGEHNLFPGPIDNSGLFSDPESQTLKEHLIDELDYVLVPTEAWNKLLNWYGCVEGQQPIVRKVVEHGLFVKHCKVEVYLLELKLCENSDPTNVLSCHFSKADTIATIEKEMRKLFNIPAERETRLWNKYMSNTYEQLSKLDNTVQDAGLYQGQVLVIEPQNEDGTWPRQTLQSKSSTAPSRNFTTSPKSSASPYSSVSASLIANGDSTSTCGMHSSGVSRGGSGFSASYNCQEPPSSHIQPGLCGLGNLGNTCFMNSALQCLSNTAPLTDYFLKDEYEAEINRDNPLGMKGEIAEAYAELIKQMWSGRDAHVAPRMFKTQVGRFAPQFSGYQQQDSQELLAFLLDGLHEDLNRVKKKPYLELKDANGRPDAVVAKEAWENHRLRNDSVIVDTFHGLFKSTLVCPECAKVSVTFDPFCYLTLPLPLKKDRVMEVFLVPADPHCRPTQYRVTVPLMGAVSDLCEALSRLSGIAAENMVVADVYNHRFHKIFQMDEGLNHIMPRDDIFVYEVCSTSVDGSECVTLPVYFRERKSRPSSTSSASALYGQPLLLSVPKHKLTLESLYQAVCDRISRYVKQPLPDEFGSSPLEPGACNGSRNSCEGEDEEEMEHQEEGKEQLSETEGSGEDEPGNDPSETTQKKIKGQPCPKRLFTFSLVNSYGTADINSLAADGKLLKLNSRSTLAMDWDSETRRLYYDEQESEAYEKHVSMLQPQKKKKTTVALRDCIELFTTMETLGEHDPWYCPNCKKHQQATKKFDLWSLPKILVVHLKRFSYNRYWRDKLDTVVEFPIRGLNMSEFVCNLSARPYVYDLIAVSNHYGAMGVGHYTAYAKNKLNGKWYYFDDSNVSLASEDQIVTKAAYVLFYQRRDDEFYKTPSLSSSGSSDGGTRPSSSQQGFGDDEACSMDTN [USP4]", "values": [{"measurement": "thermal stability score", "setting": "[1]; [5]", "result": 0.154}, {"measurement": "thermal stability score", "setting": "[1]; cell cycle stage: mitosis", "result": 0.64}, {"measurement": "melting temperature", "setting": "[2]; cell cycle stage: G1/S", "result": 48.4, "unit": "°C"}, {"measurement": "melting temperature", "setting": "[2]; cell cycle stage: mitosis", "result": 48.5, "unit": "°C"}, {"measurement": "solubility in G1/S (log2)", "setting": "[3]", "result": 0.0816}, {"measurement": "solubility change mitosis (log2)", "setting": "[4]", "result": -0.278}]}
{"sequence": "MAEGSAVSDPQHAARLLRALSSFREESRFCDAHLVLDGEEIPVQKNILAAASPYIRTKLNYNPPKDDGSTYKIELEGISVMVMREILDYIFSGQIRLNEDTIQDVVQAADLLLLTDLKTLCCEFLEGCIAAENCIGIRDFALHYCLHHVHYLATEYLETHFRDVSSTEEFLELSPQKLKEVISLEKLNVGNERYVFEAVIRWIAHDTEIRKVHMKDVMSALWVSGLDSSYLREQMLNEPLVREIVKECSNIPLSQPQQGEAMLANFKPRGYSECIVTVGGEERVSRKPTAAMRCMCPLYDPNRQLWIELAPLSMPRINHGVLSAEGFLFVFGGQDENKQTLSSGEKYDPDANTWTALPPMNEARHNFGIVEIDGMLYILGGEDGEKELISMECYDIYSKTWTKQPDLTMVRKIGCYAAMKKKIYAMGGGSYGKLFESVECYDPRTQQWTAICPLKERRFGAVACGVAMELYVFGGVRSREDAQGSEMVTCKSEFYHDEFKRWIYLNDQNLCIPASSSFVYGAVPIGASIYVIGDLDTGTNYDYVREFKRSTGTWHHTKPLLPSDLRRTGCAALRIANCKLFRLQLQQGLFRIRVHSP [GAN]", "values": [{"measurement": "thermal stability score", "setting": "[1]; [5]", "result": -0.83}, {"measurement": "thermal stability score", "setting": "[1]; cell cycle stage: mitosis", "result": -2.48}, {"measurement": "melting temperature", "setting": "[2]; cell cycle stage: G1/S", "result": 51.6, "unit": "°C"}, {"measurement": "melting temperature", "setting": "[2]; cell cycle stage: mitosis", "result": 48.7, "unit": "°C"}, {"measurement": "solubility in G1/S (log2)", "setting": "[3]", "result": -0.0081}, {"measurement": "solubility change mitosis (log2)", "setting": "[4]", "result": -0.271}]}
{"sequence": "MAEGSGEVVAVSATGAANGLNNGAGGTSATTCNPLSRKLHKILETRLDNDKEMLEALKALSTFFVENSLRTRRNLRGDIERKSLAINEEFVSIFKEVKEELESISEDVQAMSNCCQDMTSRLQAAKEQTQDLIVKTTKLQSESQKLEIRAQVADAFLSKFQLTSDEMSLLRGTREGPITEDFFKALGRVKQIHNDVKVLLRTNQQTAGLEIMEQMALLQETAYERLYRWAQSECRTLTQESCDVSPVLTQAMEALQDRPVLYKYTLDEFGTARRSTVVRGFIDALTRGGPGGTPRPIEMHSHDPLRYVGDMLAWLHQATASEKEHLEALLKHVTTQGVEENIQEVVGHITEGVCRPLKVRIEQVIVAEPGAVLLYKISNLLKFYHHTISGIVGNSATALLTTIEEMHLLSKKIFFNSLSLHASKLMDKVELPPPDLGPSSALNQTLMLLREVLASHDSSVVPLDARQADFVQVLSCVLDPLLQMCTVSASNLGTADMATFMVNSLYMMKTTLALFEFTDRRLEMLQFQIEAHLDTLINEQASYVLTRVGLSYIYNTVQQHKPEQGSLANMPNLDSVTLKAAMVQFDRYLSAPDNLLIPQLNFLLSATVKEQIVKQSTELVCRAYGEVYAAVMNPINEYKDPENILHRSPQQVQTLLS [COG6]", "values": [{"measurement": "thermal stability score", "setting": "[1]; [5]", "result": 0.0299}, {"measurement": "thermal stability score", "setting": "[1]; cell cycle stage: mitosis", "result": 0.655}, {"measurement": "melting temperature", "setting": "[2]; cell cycle stage: G1/S", "result": 48.6, "unit": "°C"}, {"measurement": "melting temperature", "setting": "[2]; cell cycle stage: mitosis", "result": 49.3, "unit": "°C"}, {"measurement": "solubility in G1/S (log2)", "setting": "[3]", "result": 0.289}, {"measurement": "solubility change mitosis (log2)", "setting": "[4]", "result": -0.0596}]}
{"sequence": "MAEKFDCHYCRDPLQGKKYVQKDGHHCCLKCFDKFCANTCVECRKPIGADSKEVHYKNRFWHDTCFRCAKCLHPLANETFVAKDNKILCNKCTTREDSPKCKGCFKAIVAGDQNVEYKGTVWHKDCFTCSNCKQVIGTGSFFPKGEDFYCVTCHETKFAKHCVKCNKAITSGGITYQDQPWHADCFVCVTCSKKLAGQRFTAVEDQYYCVDCYKNFVAKKCAGCKNPITGKRTVSRVSHPVSKARKPPVCHGKRLPLTLFPSANLRGRHPGGERTCPSWVVVLYRKNRSLAAPRGPGLVKAPVWWPMKDNPGTTTASTAKNAP [FHL1]", "values": [{"measurement": "thermal stability score", "setting": "[1]; [5]", "result": 0.0455}, {"measurement": "thermal stability score", "setting": "[1]; cell cycle stage: mitosis", "result": -3.17}, {"measurement": "melting temperature", "setting": "[2]; cell cycle stage: G1/S", "result": 56.4, "unit": "°C"}, {"measurement": "melting temperature", "setting": "[2]; cell cycle stage: mitosis", "result": 58.5, "unit": "°C"}, {"measurement": "solubility in G1/S (log2)", "setting": "[3]", "result": -0.37}, {"measurement": "solubility change mitosis (log2)", "setting": "[4]", "result": -0.0498}]}
{"sequence": "MAELDIGQHCQVEHCRQRDFLPFVCDDCSGIFCLEHRSRESHGCPEVTVINERLKTDQHTSYPCSFKDCAERELVAVICPYCEKNFCLRHRHQSDHECEKLEIPKPRMAATQKLVKDIIDSKTGETASKRWKGAKNSETAAKVALMKLKMHADGDKSLPQTERIYFQVFLPKGSKEKSKPMFFCHRWSIGKAIDFAASLARLKNDNNKFTAKKLRLCHITSGEALPLDHTLETWIAKEDCPLYNGGNIILEYLNDEEQFCKNVESYLE [ZFAND1]", "values": [{"measurement": "thermal stability score", "setting": "[1]; [5]", "result": -0.0516}, {"measurement": "thermal stability score", "setting": "[1]; cell cycle stage: mitosis", "result": 1.54}, {"measurement": "melting temperature", "setting": "[2]; cell cycle stage: G1/S", "result": 50.6, "unit": "°C"}, {"measurement": "melting temperature", "setting": "[2]; cell cycle stage: mitosis", "result": 49.9, "unit": "°C"}, {"measurement": "solubility in G1/S (log2)", "setting": "[3]", "result": 0.496}, {"measurement": "solubility change mitosis (log2)", "setting": "[4]", "result": -0.173}]}
{"sequence": "MAELTALESLIEMGFPRGRAEKALALTGNQGIEAAMDWLMEHEDDPDVDEPLETPLGHILGREPTSSEQGGLEGSGSAAGEGKPALSEEERQEQTKRMLELVAQKQREREEREEREALERERQRRRQGQELSAARQRLQEDEMRRAAEERRREKAEELAARQRVREKIERDKAERAKKYGGSVGSQPPPVAPEPGPVPSSPSQEPPTKREYDQCRIQVRLPDGTSLTQTFRAREQLAAVRLYVELHRGEELGGGQDPVQLLSGFPRRAFSEADMERPLQELGLVPSAVLIVAKKCPS [UBXN1]", "values": [{"measurement": "thermal stability score", "setting": "[1]; [5]", "result": -1.73}, {"measurement": "thermal stability score", "setting": "[1]; cell cycle stage: mitosis", "result": -2.31}, {"measurement": "melting temperature", "setting": "[2]; cell cycle stage: G1/S", "result": 52.1, "unit": "°C"}, {"measurement": "melting temperature", "setting": "[2]; cell cycle stage: mitosis", "result": 51.3, "unit": "°C"}, {"measurement": "solubility in G1/S (log2)", "setting": "[3]", "result": 0.608}, {"measurement": "solubility change mitosis (log2)", "setting": "[4]", "result": 0.313}]}
